Measured values reported in patent US20150071927A1 (UNIVERSITY OF HONG KONG, published 2015).
Blank lines part the entries; values can stand above or below the binder they belong to.

How the values were obtained:
[1] = molecular target: T1, membrane-associated IGF-IR on SKOV-3 cells (human, UniProt P08069 31-936); test: flow cytometry on SKOV-3 cells
Protocol: (§1) MCF-7 or SKOV-3 cells were detached using enzyme-free cell-disassociation buffer (Invitrogen), washed twice with PBS, and incubated at 4° C. for 2 h with antibodies in fluorescence-activated cell sorting (FACS) buffer (1% FBS in PBS). Cell surface bound antibodies were detected using PE conjugated to anti-human Fc by incubation at 4° C. for 1 h followed by washing twice with FACS buffer and fixation with 2% paraformaldehyde in FACS buffer. The stained cells were analyzed with a BD flow cytometer and FlowJo software.

[2] = molecular target: T2, recombinant IGF-IR ectodomain (His-tagged) (human, UniProt P08069 31-935); test: indirect ELISA, IGF-IR ectodomain coated, biotinylated HER2 ectodomain detected with streptavidin-HRP
T2 construct: also called recombinant IGF-IR (coated); recombinant IGF-IR ectodomains
Protocol: Recombinant ectodomains of IGF-IR or HER2 ([…] in both cases) were coated on 96-well high-binding ELISA plates at 4° C. overnight. The plates were washed and blocked with 3% BSA in PBS at 37° C. for 2 h. Two-fold serially diluted mAb Herceptin or m590 were added to the wells and the bound mAbs were detected by HRP conjugated anti-human Fc as secondary antibody and TMB substrate. Optical density at 450 nm (OD450 nm) was measured after color development at RT for 30 min. In the case of Bi-Ab, recombinant IGF-IR ectodomains were coated on the plates. Following addition of 2-fold serially diluted Bi-Ab and incubation at RT for 2 h, plates were washed and biotinylated HER2 ectodomain (2 μg/ml) was added to each well. Bound HER2 ectodomains were detected by HRP conjugated streptavidin and TMB substrate.
Following addition of the anti-HER2/anti-IGF-IR antibodies to recombinant IGF-IR-coated plates biotinylated recombinant HER2 ectodomains were added. Bound HER2 ectodomains were detected by HRP conjugated streptavidin and TMB substrate.

[3] = molecular target: T1, membrane-associated IGF-IR on SKOV-3 …; test: flow cytometry on SKOV-3 cells, MFI against antibody concentration
Protocol: as §1

T1 sequence (P08069 31-936 limits assumed): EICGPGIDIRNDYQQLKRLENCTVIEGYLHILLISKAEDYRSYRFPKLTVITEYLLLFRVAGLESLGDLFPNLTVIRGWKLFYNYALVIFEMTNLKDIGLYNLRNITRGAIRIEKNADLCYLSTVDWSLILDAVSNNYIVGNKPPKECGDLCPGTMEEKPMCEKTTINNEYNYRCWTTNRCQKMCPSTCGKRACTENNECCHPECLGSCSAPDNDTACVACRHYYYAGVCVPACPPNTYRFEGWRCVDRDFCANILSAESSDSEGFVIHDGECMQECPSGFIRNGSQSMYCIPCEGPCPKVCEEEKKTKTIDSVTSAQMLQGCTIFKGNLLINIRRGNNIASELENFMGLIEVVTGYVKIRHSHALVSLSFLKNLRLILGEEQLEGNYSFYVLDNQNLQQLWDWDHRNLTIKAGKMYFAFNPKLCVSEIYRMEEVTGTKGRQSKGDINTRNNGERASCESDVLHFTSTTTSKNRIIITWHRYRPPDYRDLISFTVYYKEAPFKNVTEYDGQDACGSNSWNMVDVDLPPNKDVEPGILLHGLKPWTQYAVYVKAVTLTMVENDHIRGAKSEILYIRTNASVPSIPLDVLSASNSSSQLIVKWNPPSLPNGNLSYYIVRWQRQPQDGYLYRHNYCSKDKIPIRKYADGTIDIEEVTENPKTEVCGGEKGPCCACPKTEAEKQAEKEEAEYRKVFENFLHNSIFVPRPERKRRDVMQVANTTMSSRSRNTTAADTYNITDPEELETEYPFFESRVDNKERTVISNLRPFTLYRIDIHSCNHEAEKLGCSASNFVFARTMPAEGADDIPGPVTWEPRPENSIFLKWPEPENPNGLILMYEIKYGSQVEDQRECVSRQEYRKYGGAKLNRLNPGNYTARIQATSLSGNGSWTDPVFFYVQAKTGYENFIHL
T2 sequence (P08069 31-935): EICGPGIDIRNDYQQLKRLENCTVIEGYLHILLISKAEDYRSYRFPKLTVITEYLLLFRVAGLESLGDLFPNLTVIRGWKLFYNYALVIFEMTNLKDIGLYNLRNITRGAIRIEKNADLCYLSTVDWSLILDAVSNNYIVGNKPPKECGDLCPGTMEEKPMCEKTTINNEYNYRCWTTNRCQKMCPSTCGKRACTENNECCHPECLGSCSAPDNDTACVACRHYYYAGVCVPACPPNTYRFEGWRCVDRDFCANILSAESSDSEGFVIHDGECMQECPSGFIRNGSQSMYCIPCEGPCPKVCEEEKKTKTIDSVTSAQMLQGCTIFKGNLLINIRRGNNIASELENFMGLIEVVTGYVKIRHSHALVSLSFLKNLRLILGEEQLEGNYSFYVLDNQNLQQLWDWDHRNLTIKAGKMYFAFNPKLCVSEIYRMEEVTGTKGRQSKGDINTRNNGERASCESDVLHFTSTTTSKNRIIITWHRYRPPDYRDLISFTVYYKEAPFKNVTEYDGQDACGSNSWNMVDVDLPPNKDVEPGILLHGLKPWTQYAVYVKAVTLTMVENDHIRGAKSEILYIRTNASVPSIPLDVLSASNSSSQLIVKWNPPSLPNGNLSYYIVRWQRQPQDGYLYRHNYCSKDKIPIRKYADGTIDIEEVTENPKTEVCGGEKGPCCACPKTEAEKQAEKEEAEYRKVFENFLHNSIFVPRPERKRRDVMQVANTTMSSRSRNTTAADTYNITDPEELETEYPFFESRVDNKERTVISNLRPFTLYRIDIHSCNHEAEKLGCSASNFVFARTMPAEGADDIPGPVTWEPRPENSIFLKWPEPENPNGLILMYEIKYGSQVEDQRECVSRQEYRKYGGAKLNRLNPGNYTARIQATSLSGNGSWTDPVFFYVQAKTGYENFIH

binding result [1]: binds
binding result [2]: binds
B1: anti-HER2/anti-IGF-IR bi-specific antibody (Bi-Ab) (bispecific antibody, human IgG1, kappa)
heavy 1: not shown
light 1: not shown
heavy 2: not shown
light 2: QIVLTQSPAIMSASPGEKVTITCSASSSVSYIHWFQQKPGTSPKVWIYGTSNLASGVPARFTGSGSGTSYSLTISRMEAEDAATYYCQQRSSYPFTFGSGTKLEIKRTVAAPSVFIFPPSDEQLKSGTASVVCLLNNFYPREAKVQWKVDNALQSGNSQESVTEQDSKDSTYSLSSTLTLSKADYEKHKVYACEVTHQGLSLPVTKSLNRREC
notes: also called anti-IGF-IR/anti-HER2 hybrid IgG; copies: 1 + 1 + 1 + 1

binding result [3]: binds
B2: m590 anti-IGF-IR mouse/human chimeric antibody (antibody, human IgG1, kappa, V domains shown)
VH: EVQLQQSGPELEQPGSSVKISCKASGYSFTAYYMHWVKQSHGKSLEWIGRINPDNGGNSYNQKFKGKAILTVDKSSNTAYMELRSLTSEDSAVYYCAKSTSYDYDGYWYFDVWGAGTTVTVSS
VL: QIVLTQSPAIMSASPGEKVTITCSASSSVSYIHWFQQKPGTSPKVWIYGTSNLASGVPARFTGSGSGTSYSLTISRMEAEDAATYYCQQRSSYPFTFGSGTKLEIKR
notes: also called human/mouse chimeric mAb m590
